Assay results reported in patent US20210261622A1 (Janssen / Centocor, published 2021).
Bridge positions count the residues as written; N and C are the ends. Square brackets hold non-standard residues; d marks the D form. Trp(7-Ph) = N[C@@H](Cc1c[nH]c2c(-c3ccccc3)cccc12)C(=O)O; Trp(5-CN) = N#Cc1ccc2[nH]cc(C[C@H](N)C(=O)O)c2c1; Trp(7-Me) = Cc1cccc2c(C[C@H](N)C(=O)O)c[nH]c12; 2Nal = N[C@@H](Cc1ccc2ccccc2c1)C(=O)O; AEF = NCCOc1ccc(C[C@H](N)C(=O)O)cc1; dNMeY = CN[C@H](Cc1ccc(O)cc1)C(=O)O; 3Pal = N[C@@H](Cc1cccnc1)C(=O)O; Cit = NC(=O)NCCC[C@H](N)C(=O)O; αMeL = CC(C)C[C@](C)(N)C(=O)O; Pen = CC(C)(S)[C@H](N)C(=O)O; Trp(5-Ca) = not defined here; αMeK = C[C@](N)(CCCCN)C(=O)O; Ac5c = NC1(C(=O)O)CCCC1; Thp = NC1(C(=O)O)CCOCC1; Abu = CC[C@H](N)C(=O)O; Sar = CNCC(=O)O

T1: human IL-23R (human, UniProt Q5VWK5 24-629)
T1 sequence (looked up): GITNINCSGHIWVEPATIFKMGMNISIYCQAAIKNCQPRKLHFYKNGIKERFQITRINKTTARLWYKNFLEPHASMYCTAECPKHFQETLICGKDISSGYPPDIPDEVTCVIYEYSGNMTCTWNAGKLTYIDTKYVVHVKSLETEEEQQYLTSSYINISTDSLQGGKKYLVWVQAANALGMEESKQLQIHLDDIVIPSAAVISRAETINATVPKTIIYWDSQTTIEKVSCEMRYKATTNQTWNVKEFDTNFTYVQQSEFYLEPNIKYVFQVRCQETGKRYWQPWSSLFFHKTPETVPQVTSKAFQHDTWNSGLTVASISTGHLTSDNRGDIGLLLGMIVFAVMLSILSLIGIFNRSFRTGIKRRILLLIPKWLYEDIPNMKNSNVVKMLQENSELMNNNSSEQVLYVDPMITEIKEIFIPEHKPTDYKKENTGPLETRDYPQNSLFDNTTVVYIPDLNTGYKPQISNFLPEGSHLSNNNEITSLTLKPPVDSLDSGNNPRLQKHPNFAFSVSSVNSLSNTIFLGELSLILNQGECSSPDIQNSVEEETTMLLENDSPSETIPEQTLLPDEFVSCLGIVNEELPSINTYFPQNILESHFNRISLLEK

T2: interleukin-23 receptor (IL-23R) (human, UniProt Q5VWK5 24-629)
T2 sequence (looked up): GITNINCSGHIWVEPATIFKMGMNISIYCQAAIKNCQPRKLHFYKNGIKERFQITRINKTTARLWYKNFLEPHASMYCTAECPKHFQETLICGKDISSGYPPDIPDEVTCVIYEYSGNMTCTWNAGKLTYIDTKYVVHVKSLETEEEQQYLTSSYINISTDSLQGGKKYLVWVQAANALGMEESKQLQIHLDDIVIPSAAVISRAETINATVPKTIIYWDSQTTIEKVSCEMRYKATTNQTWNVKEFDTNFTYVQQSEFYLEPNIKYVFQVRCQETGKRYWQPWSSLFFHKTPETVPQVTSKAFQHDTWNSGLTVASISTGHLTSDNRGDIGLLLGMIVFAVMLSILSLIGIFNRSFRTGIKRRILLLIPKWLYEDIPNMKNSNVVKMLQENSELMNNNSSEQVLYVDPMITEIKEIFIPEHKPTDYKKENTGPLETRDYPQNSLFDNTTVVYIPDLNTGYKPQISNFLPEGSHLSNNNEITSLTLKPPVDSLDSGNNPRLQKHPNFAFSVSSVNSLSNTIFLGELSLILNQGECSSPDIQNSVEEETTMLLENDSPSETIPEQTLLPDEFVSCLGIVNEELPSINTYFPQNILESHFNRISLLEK

B1: Peptide No. 85 (peptide)
peptide: Ac-[Pen]NT[Trp(7-Me)][Cit][Pen][AEF][2Nal][αMeL]K(Ac)N[dH]-NH2
modifications: disulfide 1-6
SMILES: CC(=O)NCCCC[C@H](NC(=O)[C@](C)(CC(C)C)NC(=O)[C@H](Cc1ccc2ccccc2c1)NC(=O)[C@H](Cc1ccc(OCCN)cc1)NC(=O)[C@H]1NC(=O)[C@H](CCCNC(N)=O)NC(=O)[C@H](Cc2c[nH]c3c(C)cccc23)NC(=O)[C@H]([C@@H](C)O)NC(=O)[C@H](CC(N)=O)NC(=O)[C@@H](NC(C)=O)C(C)(C)SSC1(C)C)C(=O)N[C@@H](CC(N)=O)C(=O)N[C@H](Cc1c[nH]cn1)C(N)=O
B2: Peptide No. 8 (peptide)
peptide: RXQTWQCFXXENNY
modifications: Ac-[(D)Arg]-[Abu]-Q-T-W-Q-[Cys]-Phe[4-(2-aminoethoxy)]-[2-Nal]-[THP]-E-N-N-[(D)NMeTyr]-NH2; Abu-Cys thioether
B3: Peptide No. 117 (peptide)
peptide: Ac-[Pen]NT[Trp(7-Ph)]K(Ac)[Pen][AEF][2Nal][Thp]K(Ac)N[3Pal][Sar]-NH2
modifications: disulfide 1-6
SMILES: CC(=O)NCCCC[C@@H]1NC(=O)[C@H](Cc2c[nH]c3c(-c4ccccc4)cccc23)NC(=O)[C@H]([C@@H](C)O)NC(=O)[C@H](CC(N)=O)NC(=O)[C@@H](NC(C)=O)C(C)(C)SSC(C)(C)[C@@H](C(=O)N[C@@H](Cc2ccc(OCCN)cc2)C(=O)N[C@@H](Cc2ccc3ccccc3c2)C(=O)NC2(C(=O)N[C@@H](CCCCNC(C)=O)C(=O)N[C@@H](CC(N)=O)C(=O)N[C@@H](Cc3cccnc3)C(=O)N(C)CC(N)=O)CCOCC2)NC1=O
B4: Peptide No. 160 (peptide)
peptide: Ac-[Pen]NT[Trp(5-Ca)]K(Ac)[Pen][AEF][2Nal][Thp]EN[3Pal][Sar]-NH2
modifications: disulfide 1-6; reading uncertain; also: printed as Ac-[Pen]-N-T-[W(5-Ca)]-[Lys(Ac)]-[Pen]-Phe[4-(2-aminoethoxy)]-[2-Nal]-[THP]-E-N-[3Pal]-[Sarc]-NH2; Pen-Pen disulfide
B5: Peptide No. 235 (peptide)
peptide: Ac-[dR][Pen]NT[Trp(7-Me)]K(Ac)[Pen][AEF][2Nal][Ac5c]EN[3Pal][Sar]-NH2
modifications: disulfide 2-7
SMILES: CC(=O)NCCCC[C@@H]1NC(=O)[C@H](Cc2c[nH]c3c(C)cccc23)NC(=O)[C@H]([C@@H](C)O)NC(=O)[C@H](CC(N)=O)NC(=O)[C@@H](NC(=O)[C@@H](CCCNC(=N)N)NC(C)=O)C(C)(C)SSC(C)(C)[C@@H](C(=O)N[C@@H](Cc2ccc(OCCN)cc2)C(=O)N[C@@H](Cc2ccc3ccccc3c2)C(=O)NC2(C(=O)N[C@@H](CCC(=O)O)C(=O)N[C@@H](CC(N)=O)C(=O)N[C@@H](Cc3cccnc3)C(=O)N(C)CC(N)=O)CCCC2)NC1=O
B6: Peptide No. 121 (SEQ ID NO: 121) (peptide)
peptide: Ac-[Pen]NT[Trp(7-Me)]K(Ac)[Pen][AEF][2Nal][Thp]EN[3Pal][dNMeY]-NH2
modifications: disulfide 1-6
SMILES: CC(=O)NCCCC[C@@H]1NC(=O)[C@H](Cc2c[nH]c3c(C)cccc23)NC(=O)[C@H]([C@@H](C)O)NC(=O)[C@H](CC(N)=O)NC(=O)[C@@H](NC(C)=O)C(C)(C)SSC(C)(C)[C@@H](C(=O)N[C@@H](Cc2ccc(OCCN)cc2)C(=O)N[C@@H](Cc2ccc3ccccc3c2)C(=O)NC2(C(=O)N[C@@H](CCC(=O)O)C(=O)N[C@@H](CC(N)=O)C(=O)N[C@@H](Cc3cccnc3)C(=O)N(C)[C@H](Cc3ccc(O)cc3)C(N)=O)CCOCC2)NC1=O

What follows are binders tested against T1, human IL-23R (assay: cell-based or functional assay).

| Binder | PBMC pSTAT3 IC50 | pStat3 HTRF IC50 |
| --- | --- | --- |
| Ac-[dR][Pen]NT[Trp(7-Me)]K(Ac)[Pen][AEF][2Nal][Thp]ENN[dNMeY]-NH2 (disulfide 2-7) [Peptide No. 88] | > 2 µM |  |
| Ac-[Pen]NT[Trp(5-Ph)]K(Ac)[Pen][AEF][2Nal][Thp]EN[3Pal][Sar]-NH2 (disulfide 1-6 (inferred)) [Peptide No. 150] |  | > 10 nM |
| Ac-[Abu]QT[Trp(7-Me)]K(Ac)C[AEF][2Nal][αMeK]K(Ac)N[dK][Sar]-NH2 (thioether 1-6) [Peptide No. 17] | 0.791 nM |  |
| B1 | 3 nM |  |
| B2 | 1 nM |  |
| B3 |  | 20 pM |
| Ac-[Pen]NT[Trp(7-(3-carboxamidophenyl))]K(Ac)[Pen][AEF][2Nal][Thp]EN[3Pal][Sar]-NH2 (disulfide 1-6 (inferred)) [Peptide No. 142] |  | 90 pM |
| B4 |  | > 10 nM |
| Ac-[Pen]NT[Trp(5-CN)]K(Ac)[Pen][AEF][2Nal][Thp]EN[3Pal][Sar]-NH2 (disulfide 1-6 (inferred)) [Peptide No. 154] |  | > 10 nM |
| Ac-[Abu]QT[Trp(7-Ph)]K(Ac)C[AEF][2Nal][αMeK]K(Ac)N[dK][Sar]-NH2 (thioether 1-6) [Peptide No. 18] | 1.1 nM |  |

Target: T1, human IL-23R
Assay: cell-based or functional assay
Remark: another data set of the same source

| Binder | PBMC pSTAT3 IC50 [pM] |
| --- | --- |
| B5 | 10 |

The binders below were run against T2, interleukin-23 receptor (IL-23R) (assay: cell-based or functional assay).

| Binder | IC50, NK Cell Assay (IFNγ in supernatant of human NK cells stimulated with IL-23 and IL-18) [nM] |
| --- | --- |
| B6 | 0.04 |
